As a reminder, the Km is the substrate concentration at which the rate is half of its maximum.

The record followed here is patent US10745365B2, “Luminogenic and fluorogenic compounds and methods to detect molecules or conditions” (Promega Corporation, priority 2005, dated 2020).

Substrate in series [1]: CNCCCOc1ccc2nc(C3=N[C@@H](C(=O)O)CS3)ccc2c1
The experiment in a line: Two-step luminescent FMO 3 assay. The class given is biochemical, human. To be noted: other: fit of Table 33.

Substrate in series [2]: CNCCCOc1ccc2nc(C3=N[C@@H](C(=O)O)CS3)ccc2c1
The experiment in a line: purified protein, by the assay type.

Substrate in series [3]: NCCCOc1ccc2nc(C3=N[C@@H](C(=O)O)CS3)sc2c1
The experiment in a line: purified protein, by the assay type. To be noted: other: fit of Tables 23-24.

Substrate in series [4]: CNCCCOc1ccc2c(C)cc(=O)oc2c1
The series is described as follows: Fluorogenic MAO A substrate assay. To be noted: other: fit of Table 31. The class given is biochemical, human. As to the method:
(§1) The fluorescent signal was then measured (excitation/emission=355/460 nm) on a Fluoroskan Ascent plate fluorometer.
(§2) This 90 μl contained 35 μl 200 mM Tricine pH 8.3, 35 μl 200 mM Tricine pH 8.7 (or water), 10 μl 200 mM MgSO4, and 10 μl of each substrate dilution.

Substrate in series [5]: O=C(O)[C@H]1O[C@@H](Oc2ccc3nc(C4=N[C@@H](C(=O)O)CS4)sc3c2)[C@H](O)[C@@H](O)[C@@H]1O
The experiment in a line: Beta-glucuronidase (GUS) assay. The class given is biochemical, human. To be noted: other: 50 mM MES, pH 6.3. Here is the method: The source of the human enzyme was Sigma-Aldrich. GUS was incubated with the substrate in 50 mM MES, pH 6.3, for 15 minutes.

Substrate in series [6]: CNCCCOc1ccc2c(C)cc(=O)oc2c1
The experiment in a line: Fluorogenic MAO B substrate assay. The class given is biochemical, human. The note with it: other: fit of Table 31. Here is the method:
as §1, §2

Substrate in series [7]: CNCCCOc1ccc2nc(C3=N[C@@H](C(=O)O)CS3)ccc2c1
The series is described as follows: Two-step bioluminogenic MAO B substrate assay. The class given is biochemical, human. To be noted: other: fit of Tables 23-24.

Substrate in series [8]: NCCCOc1ccc2nc(C3=N[C@@H](C(=O)O)CS3)sc2c1
The series is described as follows: Two-step bioluminogenic MAO B substrate assay. The class given is biochemical, human.

B1: human recombinant flavin-containing monooxygenase 3 (FMO 3) (Homo sapiens) (protein)
chain: MGKKVAIIGAGVSGLASIRSCLEEGLEPTCFEKSNDIGGLWKFSDHAEEGRASIYKSVFSNSSKEMMCFPDFPFPDDFPNFMHNSKIQEYIIAFAKEKNLLKYIQFKTFVSSVNKHPDFATTGQWDVTTERDGKKESAVFDAVMVCSGHHVYPNLPKESFPGLNHFKGKCFHSRDYKEPGVFNGKRVLVVGLGNSGCDIATELSRTAEQVMISSRSGSWVMSRVWDNGYPWDMLLVTRFGTFLKNNLPTAISDWLYVKQMNARFKHENYGLMPLNGVLRKEPVFNDELPASILCGIVSVKPNVKEFTETSAIFEDGTIFEGIDCVIFATGYSFAYPFLDESIIKSRNNEIILFKGVFPPLLEKSTIAVIGFVQSLGAAIPTVDLQSRWAAQVIKGTCTLPSMEDMMNDINEKMEKKRKWFGKSETIQTDYIVYMDELSSFIGAKPNIPWLFLTDPKLAMEVYFGPCSPYQFRLVGPGQWPGARNAILTQWDRSLKPMQTRVVGRLQKPCFFFHWLKLFAIPILLIAVFLVLT
notes: purchased Sigma Chemical Company F-5053; host or cells: baculovirus infected insect cells (microsomes)
As to B1, the Km in series [1] turned out to be 200 ± 20 µM.

B2: human recombinant monoamine oxidase A (MAO A) (Homo sapiens) (protein)
chain: MENQEKASIAGHMFDVVVIGGGISGLSAAKLLTEYGVSVLVLEARDRVGGRTYTIRNEHVDYVDVGGAYVGPTQNRILRLSKELGIETYKVNVSERLVQYVKGKTYPFRGAFPPVWNPIAYLDYNNLWRTIDNMGKEIPTDAPWEAQHADKWDKMTMKELIDKICWTKTARRFAYLFVNINVTSEPHEVSALWFLWYVKQCGGTTRIFSVTNGGQERKFVGGSGQVSERIMDLLGDQVKLNHPVTHVDQSSDNIIIETLNHEHYECKYVINAIPPTLTAKIHFRPELPAERNQLIQRLPMGAVIKCMMYYKEAFWKKKDYCGCMIIEDEDAPISITLDDTKPDGSLPAIMGFILARKADRLAKLHKEIRKKKICELYAKVLGSQEALHPVHYEEKNWCEEQYSGGCYTAYFPPGIMTQYGRVIRQPVGRIFFAGTETATKWSGYMEGAVEAGERAAREVLNGLGKVTEKDIWVQEPESKDVPAVEITHTFWERNLPSVSGLLKIIGFSTSVTALGFVLYKYKLLPRS
notes: purchased Sigma Chemical Company M-7316; host or cells: baculovirus infected insect cells (microsomes)
Take B2: the Km in series [2] (other: fit of Table 22) was determined as 1560 ± 130 µM; in series [2] (other: fit of Tables 23-24), 1700 µM; in series [3] it was 1320 µM; in series [4], 21 ± 1 µM.

B3: beta-glucuronidase (GUS) (Homo sapiens) (protein)
chain: LQGGMLYPQESPSRECKELDGLWSFRADFSDNRRRGFEEQWYRRPLWESGPTVDMPVPSSFNDISQDWRLRHFVGWVWYEREVILPERWTQDLRTRVVLRIGSAHSYAIVWVNGVDTLEHEGGYLPFEADISNLVQVGPLPSRLRITIAINNTLTPTTLPPGTIQYLTDTSKYPKGYFVQNTYFDFFNYAGLQRSVLLYTTPTTYIDDITVTTSVEQDSGLVNYQISVKGSNLFKLEVRLLDAENKVVANGTGTQGQLKVPGVSLWWPYLMHERPAYLYSLEVQLTAQTSLGPVSDFYTLPVGIRTVAVTKSQFLINGKPFYFHGVNKHEDADIRGKGFDWPLLVKDFNLLRWLGANAFRTSHYPYAEEVMQMCDRYGIVVIDECPGVGLALPQFFNNVSLHHHMQVMEEVVRRDKNHPAVVMWSVANEPASHLESAGYYLKMVIAHTKSLDPSRPVTFVSNSNYAADKGAPYVDVICLNSYYSWYHDYGHLELIQLQLATQFENWYKKYQKPIIQSEYGAETIAGFHQDPPLMFTEEYQKSLLEQYHLGLDQKRRKYVVGELIWNFADFMTEQSPTRVLGNKKGIFTRQRQPKSAAFLLRERYWKIANETRYPHSVAKSQCLENSLFT
notes: purchased Sigma-Aldrich
Turning to B3, the Km in series [5] stood at 180 ± 30 µM.

B4: human recombinant monoamine oxidase B (MAO B) (Homo sapiens) (protein)
chain: MSNKCDVVVVGGGISGMAAAKLLHDSGLNVVVLEARDRVGGRTYTLRNQKVKYVDLGGSYVGPTQNRILRLAKELGLETYKVNEVERLIHHVKGKSYPFRGPFPPVWNPITYLDHNNFWRTMDDMGREIPSDAPWKAPLAEEWDNMTMKELLDKLCWTESAKQLATLFVNLCVTAETHEVSALWFLWYVKQCGGTTRIISTTNGGQERKFVGGSGQVSERIMDLLGDRVKLERPVIYIDQTRENVLVETLNHEMYEAKYVISAIPPTLGMKIHFNPPLPMMRNQMITRVPLGSVIKCIVYYKEPFWRKKDYCGTMIIDGEEAPVAYTLDDTKPEGNYAAIMGFILAHKARKLARLTKEERLKKLCELYAKVLGSLEALEPVHYEEKNWCEEQYSGGCYTTYFPPGILTQYGRVLRQPVDRIYFAGTETATHWSGYMEGAVEAGERAAREILHAMGKIPEDEIWQSEPESVDVPAQPITTTFLERHLPSVPGLLRLIGLTTIFSATALGFLAHKRGLLVRV
notes: purchased Sigma Chemical Company M-7441; host or cells: baculovirus infected insect cells (microsomes)
For B4, the Km in series [6] was 16 ± 1 µM; in series [7], 650 µM; in series [8] (other: fit of Table 21), 24 ± 1 µM; in series [8] (other: fit of Tables 23-24), 1880 µM.
